Results on four molecules are retold here after patent US20240043533A1 (NGM BIOPHARMACEUTICALS, published 2024).

Where two headings read alike, the source gives them in different places. Some results are limits rather than exact numbers.

In test [1] the target is ILT3 extracellular domain chimeric receptor on NFAT-GFP reporter cells (human). The test is described as follows: cell-based or functional assay.
Test [2] deals with T1, extracellular domain of human ILT3 (huILT3-ECD) (human, UniProt Q8NHJ6 22-259).
T1 construct: also called human ILT3-ECD
The test is described as follows: SPR (Biacore), antibody captured via anti-Fc on CM5 chip, soluble ILT3-ECD injected, 37 C. Here is the method: (§1) The binding affinities of anti-ILT3 antibodies to human ILT3 and cyno ILT3 were measured using a Biacore system (GE Healthcare LifeSciences). Briefly, anti-Fc antibody (Sigma-Aldrich) was immobilized on all four flow cells of a CM5 chip using amine coupling reagents (GE Healthcare LifeSciences). Antibodies were captured on flow cells 2, 3, and 4 using flow cell 1 as a reference. Concentrations ranging from 3.3-10 nM of human or cyno ILT3-ECD were injected at a flow rate of 50 μL/min at 37° C. Kinetic data were collected over time and fit using the simultaneous global fit equation to yield affinity constants (KD values) for each antibody.
(§2) The binding affinity of Hz5A7.v5 to human ILT3 and cyno ILT3 was determined using a Biacore system as described herein and compared with the binding affinity of the parental chimeric 5A7 (ch5A7) antibody and humanized 5A7 without any CDR modifications (Hz5A7.v1) (see Table 12).

Test [3] deals with T2, extracellular domain of cyno ILT3 (cynoILT3-ECD) (cynomolgus monkey).
T2 chain: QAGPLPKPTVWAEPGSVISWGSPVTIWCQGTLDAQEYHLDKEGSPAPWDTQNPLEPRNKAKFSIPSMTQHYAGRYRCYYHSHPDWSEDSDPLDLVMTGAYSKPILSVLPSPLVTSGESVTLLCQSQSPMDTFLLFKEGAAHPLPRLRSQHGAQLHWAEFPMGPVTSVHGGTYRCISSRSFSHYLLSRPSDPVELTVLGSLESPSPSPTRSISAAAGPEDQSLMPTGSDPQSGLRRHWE
Described as above. The protocol:
as §1, §2

In another test the target is T3, Cyno LILRB5 (Macaca fascicularis, UniProt A0A2K5VIP6).
T3 construct: expressed on the cell surface; also called cynomolgus LILRB5
The test can be described thus: FACS on cells expressing cyno LILRB5, labeled anti-mouse Fc secondary antibody. The protocol: (§3) ELISA assays were used to screen antibodies against human ILT3 and human LILRA1,2,4-6. […] These antibodies were rescreened by FACS for binding to human ILT3 and cyno ILT3 expressed on HEK-293T cells. The antibodies that bound to both human and cyno ILT3 were selected. This subset of antibodies were screened by FACS against human LILRB1-5 (ILT2, ILT4, ILT5, ILT3, and LILRB5, respectively), cyno LILRB5, and human LILRA1,2,4-6. For FACS screening, each antibody was incubated with cells expressing human ILT3, cyno ILT3, one of the LILRA proteins, or one of the LILRB proteins for 30 minutes at 4° C. After washing, the cells were incubated with labeled anti-mouse Fc antibody for 30 minutes at 4° C. After washing, cells were analyzed on a flow cytometer. Antibodies were selected on the criteria of binding to human ILT3, cyno ILT3, no or limited binding to other LILRB proteins, and no or limited binding to LILRA proteins.

In the next test the target is T4, human LILRB2 (human, UniProt Q8N423 22-597).
T4 construct: whole, on cells; also called ILT4
The test is described as follows: FACS on cells expressing human LILRB2, labeled anti-mouse Fc secondary antibody. The protocol:
as §3

The next test has as its target T5, LILRB3 (human, UniProt O75022).
T5 construct: expressed on the cell surface; also called human LILRB3; ILT5
The test is described as follows: FACS on cells expressing human LILRB3, labeled anti-mouse Fc secondary antibody. The protocol: as §3

The next test concerns the target T6, LILRB5 (human, UniProt O75023).
T6 construct: expressed on the cell surface; also called human LILRB5; CD85C
The test can be described thus: FACS on cells expressing human LILRB5, labeled anti-mouse Fc secondary antibody. The protocol: as §3

The target of the next test is T7, human LILRA1 (human, UniProt O75019 17-489).
T7 construct: whole, on cells
The test is described as follows: FACS on cells expressing human LILRA1, labeled anti-mouse Fc secondary antibody. Here is the method:
as §3

A further test deals with T8, human LILRA2 (human, UniProt Q8N149 24-483).
T8 construct: whole, on cells
The test is described as follows: FACS on cells expressing human LILRA2, labeled anti-mouse Fc secondary antibody. Here is the method: as §3

For the next test, the target named is T9, human LILRA4 (human, UniProt P59901 24-499).
T9 construct: whole, on cells
The test is described as follows: FACS on cells expressing human LILRA4, labeled anti-mouse Fc secondary antibody. Here is the method:
as §3

For a further test, the target named is T10, human LILRA5 (human, UniProt A6NI73 42-299).
T10 construct: whole, on cells
The test is described as follows: FACS on cells expressing human LILRA5, labeled anti-mouse Fc secondary antibody. The protocol:
as §3

Another test concerns the target T11, human LILRA6 (human, UniProt Q6PI73 24-447, limits assumed).
T11 construct: Read out of the printed 'LILRA1,2,4-6'
The test can be described thus: FACS on cells expressing human LILRA6, labeled anti-mouse Fc secondary antibody. The protocol:
as §3

For test [4], the target named is T1, extracellular domain of human ILT3 …. The test can be described thus: SPR (Biacore), antibody captured via anti-Fc on CM5 chip, soluble ILT3-ECD injected, 37 C. The protocol: as §1
The source holds these as a separate data set. On the technique in general: SPR reads the build-up and loss of mass on a sensor chip optically.

The target in test [5] is T2, extracellular domain of cyno ILT3 …. The test is described as above. The protocol:
as §1

A further test has as its target T12, LILRB4.
T12 construct: the construct expressed on the cells is not described further; also called human ILT3 expressed on cells for the FACS screen; ILT3
The test is described as follows: FACS on cells expressing human LILRB4 (ILT3), labeled anti-mouse Fc secondary antibody. The protocol:
as §3

The term Kd denotes the constant that tells how readily two partners part at equilibrium. By koff is commonly meant a measure of how fast the partners let go of each other. A lower koff goes with slow dissociation. As usually defined, the kon is the rate constant with which the complex forms. Lower therefore signals slower complex formation. For orientation: EC50 (read off the curve) means the concentration at which the effect is half-maximal.

T4 sequence (Q8N423 22-597): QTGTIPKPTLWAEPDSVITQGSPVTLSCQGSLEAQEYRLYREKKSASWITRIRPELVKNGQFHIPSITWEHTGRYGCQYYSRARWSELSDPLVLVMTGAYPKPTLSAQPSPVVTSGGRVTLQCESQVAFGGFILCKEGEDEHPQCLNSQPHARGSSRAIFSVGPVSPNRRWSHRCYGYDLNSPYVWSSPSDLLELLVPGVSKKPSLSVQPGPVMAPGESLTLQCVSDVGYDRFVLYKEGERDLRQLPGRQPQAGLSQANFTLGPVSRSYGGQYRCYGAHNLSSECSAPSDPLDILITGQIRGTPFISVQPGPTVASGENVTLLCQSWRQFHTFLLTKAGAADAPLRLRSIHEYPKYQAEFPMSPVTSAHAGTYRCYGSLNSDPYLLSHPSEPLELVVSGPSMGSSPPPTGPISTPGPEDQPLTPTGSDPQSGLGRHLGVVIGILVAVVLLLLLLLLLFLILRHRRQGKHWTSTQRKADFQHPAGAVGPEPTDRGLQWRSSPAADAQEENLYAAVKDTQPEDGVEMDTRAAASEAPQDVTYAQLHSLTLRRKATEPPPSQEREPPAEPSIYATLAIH
T6 sequence (O75023 24-590 limits assumed): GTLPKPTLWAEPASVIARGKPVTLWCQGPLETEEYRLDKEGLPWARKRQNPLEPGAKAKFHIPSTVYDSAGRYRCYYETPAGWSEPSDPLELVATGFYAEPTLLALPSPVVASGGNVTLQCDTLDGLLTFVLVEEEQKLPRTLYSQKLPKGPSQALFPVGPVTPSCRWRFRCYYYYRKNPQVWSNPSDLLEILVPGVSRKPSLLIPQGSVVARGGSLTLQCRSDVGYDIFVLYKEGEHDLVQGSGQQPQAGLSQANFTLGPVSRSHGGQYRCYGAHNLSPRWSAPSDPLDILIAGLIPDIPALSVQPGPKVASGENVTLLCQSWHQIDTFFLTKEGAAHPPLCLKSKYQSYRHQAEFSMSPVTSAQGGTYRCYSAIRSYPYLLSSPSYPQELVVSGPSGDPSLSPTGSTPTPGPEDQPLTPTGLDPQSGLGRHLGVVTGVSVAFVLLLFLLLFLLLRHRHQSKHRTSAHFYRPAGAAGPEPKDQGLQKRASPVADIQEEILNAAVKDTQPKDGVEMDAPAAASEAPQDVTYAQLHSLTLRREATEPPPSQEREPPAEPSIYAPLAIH
T11 sequence (Q6PI73 24-447 limits assumed): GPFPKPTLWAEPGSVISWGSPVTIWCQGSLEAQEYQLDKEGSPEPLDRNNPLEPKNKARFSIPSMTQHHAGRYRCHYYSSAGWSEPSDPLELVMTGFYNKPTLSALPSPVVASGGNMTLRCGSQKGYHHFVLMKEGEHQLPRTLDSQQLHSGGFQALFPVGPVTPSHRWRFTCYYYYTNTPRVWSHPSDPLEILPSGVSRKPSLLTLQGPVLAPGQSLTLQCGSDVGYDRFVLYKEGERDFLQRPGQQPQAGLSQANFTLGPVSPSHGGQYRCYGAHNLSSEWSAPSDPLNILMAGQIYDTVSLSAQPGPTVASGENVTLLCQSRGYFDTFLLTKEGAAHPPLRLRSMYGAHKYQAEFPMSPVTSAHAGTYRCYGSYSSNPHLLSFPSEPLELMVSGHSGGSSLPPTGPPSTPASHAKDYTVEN
T8 sequence (Q8N149 24-483): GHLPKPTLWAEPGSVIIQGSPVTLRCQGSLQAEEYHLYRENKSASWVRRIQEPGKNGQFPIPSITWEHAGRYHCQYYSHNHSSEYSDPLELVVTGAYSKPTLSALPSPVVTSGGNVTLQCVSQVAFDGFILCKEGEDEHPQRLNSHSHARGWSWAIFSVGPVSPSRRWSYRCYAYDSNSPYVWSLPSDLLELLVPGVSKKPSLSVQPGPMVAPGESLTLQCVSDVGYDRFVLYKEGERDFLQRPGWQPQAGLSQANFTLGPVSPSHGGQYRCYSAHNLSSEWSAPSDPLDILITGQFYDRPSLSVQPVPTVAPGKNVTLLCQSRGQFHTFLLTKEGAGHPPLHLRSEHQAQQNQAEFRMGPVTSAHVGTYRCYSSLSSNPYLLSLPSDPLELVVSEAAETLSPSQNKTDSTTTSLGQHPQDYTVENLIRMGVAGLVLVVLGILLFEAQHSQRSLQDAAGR
T5 sequence (O75022 24-631 limits assumed): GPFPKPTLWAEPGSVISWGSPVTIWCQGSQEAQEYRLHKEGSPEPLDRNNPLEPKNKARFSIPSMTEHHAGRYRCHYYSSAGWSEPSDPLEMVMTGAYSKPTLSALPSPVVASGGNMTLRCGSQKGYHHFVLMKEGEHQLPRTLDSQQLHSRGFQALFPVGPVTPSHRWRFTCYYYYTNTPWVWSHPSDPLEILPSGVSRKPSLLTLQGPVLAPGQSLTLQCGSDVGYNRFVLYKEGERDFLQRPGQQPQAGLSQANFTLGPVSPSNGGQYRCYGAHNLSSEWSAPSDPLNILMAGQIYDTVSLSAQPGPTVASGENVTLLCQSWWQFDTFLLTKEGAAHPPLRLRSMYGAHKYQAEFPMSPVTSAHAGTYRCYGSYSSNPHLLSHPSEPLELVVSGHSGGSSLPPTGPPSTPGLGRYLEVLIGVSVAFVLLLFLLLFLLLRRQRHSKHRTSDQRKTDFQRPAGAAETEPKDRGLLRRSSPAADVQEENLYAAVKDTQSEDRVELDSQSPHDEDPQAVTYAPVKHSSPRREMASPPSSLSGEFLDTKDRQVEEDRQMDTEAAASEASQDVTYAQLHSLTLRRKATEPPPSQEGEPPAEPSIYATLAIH
T3 sequence (A0A2K5VIP6 entry or part of it): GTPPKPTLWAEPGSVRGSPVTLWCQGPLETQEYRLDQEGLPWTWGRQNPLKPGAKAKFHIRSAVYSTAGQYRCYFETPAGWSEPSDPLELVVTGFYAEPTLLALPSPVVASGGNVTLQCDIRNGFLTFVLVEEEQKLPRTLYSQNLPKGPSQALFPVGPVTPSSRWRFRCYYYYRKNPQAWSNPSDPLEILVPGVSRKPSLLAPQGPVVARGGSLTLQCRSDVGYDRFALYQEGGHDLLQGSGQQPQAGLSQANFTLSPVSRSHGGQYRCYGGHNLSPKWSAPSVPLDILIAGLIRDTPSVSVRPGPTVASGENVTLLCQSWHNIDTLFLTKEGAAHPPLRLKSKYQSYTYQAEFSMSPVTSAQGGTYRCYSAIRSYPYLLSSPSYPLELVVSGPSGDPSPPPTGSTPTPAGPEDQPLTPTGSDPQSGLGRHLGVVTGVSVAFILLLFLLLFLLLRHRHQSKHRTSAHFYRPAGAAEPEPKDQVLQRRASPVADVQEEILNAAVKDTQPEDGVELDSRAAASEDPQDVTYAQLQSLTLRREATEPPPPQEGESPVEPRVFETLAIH
T10 sequence (A6NI73 42-299): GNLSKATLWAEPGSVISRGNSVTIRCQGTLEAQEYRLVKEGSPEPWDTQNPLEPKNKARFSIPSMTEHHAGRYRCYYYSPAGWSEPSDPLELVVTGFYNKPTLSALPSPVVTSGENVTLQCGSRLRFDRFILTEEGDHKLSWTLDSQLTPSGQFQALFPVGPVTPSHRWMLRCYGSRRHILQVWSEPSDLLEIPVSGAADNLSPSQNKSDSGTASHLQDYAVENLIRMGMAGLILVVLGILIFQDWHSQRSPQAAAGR
T9 sequence (P59901 24-499): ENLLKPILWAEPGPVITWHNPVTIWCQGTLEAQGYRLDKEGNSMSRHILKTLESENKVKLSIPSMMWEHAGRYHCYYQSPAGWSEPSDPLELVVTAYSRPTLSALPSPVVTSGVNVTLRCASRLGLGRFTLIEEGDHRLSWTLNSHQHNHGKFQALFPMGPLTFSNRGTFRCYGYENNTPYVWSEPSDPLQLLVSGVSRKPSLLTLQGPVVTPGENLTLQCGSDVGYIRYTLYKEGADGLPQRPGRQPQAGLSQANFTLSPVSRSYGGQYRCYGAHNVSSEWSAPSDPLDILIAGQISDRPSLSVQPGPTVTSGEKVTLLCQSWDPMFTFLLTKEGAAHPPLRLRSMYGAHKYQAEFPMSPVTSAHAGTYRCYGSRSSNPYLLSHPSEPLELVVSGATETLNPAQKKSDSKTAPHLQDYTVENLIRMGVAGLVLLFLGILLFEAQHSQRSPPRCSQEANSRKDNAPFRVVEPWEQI
T7 sequence (O75019 17-489): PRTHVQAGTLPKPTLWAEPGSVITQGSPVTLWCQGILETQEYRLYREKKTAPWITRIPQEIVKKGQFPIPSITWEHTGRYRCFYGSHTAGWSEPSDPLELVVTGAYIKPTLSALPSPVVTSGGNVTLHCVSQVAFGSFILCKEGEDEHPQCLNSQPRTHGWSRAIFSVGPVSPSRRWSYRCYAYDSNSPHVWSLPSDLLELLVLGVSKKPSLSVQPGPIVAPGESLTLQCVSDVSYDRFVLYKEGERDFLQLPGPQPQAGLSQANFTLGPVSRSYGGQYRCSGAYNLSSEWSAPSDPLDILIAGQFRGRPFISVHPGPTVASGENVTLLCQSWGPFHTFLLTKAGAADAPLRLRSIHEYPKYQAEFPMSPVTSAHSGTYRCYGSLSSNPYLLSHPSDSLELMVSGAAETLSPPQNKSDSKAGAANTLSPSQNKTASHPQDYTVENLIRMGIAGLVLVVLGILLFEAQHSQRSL
T12 sequence (receptor, as listed by the source limits assumed): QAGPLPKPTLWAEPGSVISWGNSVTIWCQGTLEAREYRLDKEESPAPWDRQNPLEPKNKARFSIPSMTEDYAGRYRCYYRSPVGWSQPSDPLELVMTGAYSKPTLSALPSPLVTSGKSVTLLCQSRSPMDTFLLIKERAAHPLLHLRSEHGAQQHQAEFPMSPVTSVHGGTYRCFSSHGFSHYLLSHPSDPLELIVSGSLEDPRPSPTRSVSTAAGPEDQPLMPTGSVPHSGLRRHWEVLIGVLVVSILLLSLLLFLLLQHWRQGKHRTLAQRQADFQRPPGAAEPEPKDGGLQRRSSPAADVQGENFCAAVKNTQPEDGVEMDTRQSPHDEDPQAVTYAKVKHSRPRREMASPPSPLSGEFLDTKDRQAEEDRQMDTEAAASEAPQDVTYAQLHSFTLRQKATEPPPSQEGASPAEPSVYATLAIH

B1: anti-ILT3 antibody ch5A7 (parental chimeric 5A7) (antibody, V domains shown)
VH: EVKLVESGGGLVKPGGSLKLSCAASGFTFSSYGMSWVRQTPEKRLEWVATISGGGSYTNYPDSVKGRLTISRDNAKKNLYLEMSSLRSEDTALYYCARREWRMTLYAMDYWGQGTSVTVSS
VL: NIVLTQSPASLAVSLGQRATISCRASESVDSYGNSFMHWYQQKPGQAPKLLIYLTSNLESGVPARFSGSGSRTDFTLTIDPVEADDAATYYCQQNNEDPFTFGSGTKLEIK
B1: the “IC50 (read off the curve)” value in test [1] was ~10 pM. In test [2], this molecule gave a Kd of 570 pM, a koff of 0.0017 s⁻¹ and a kon of 2.9e+06 M⁻¹ s⁻¹. In [3], this molecule yielded a Kd of 2400 pM, a koff of 0.018 s⁻¹ and a kon of 7.5e+06 M⁻¹ s⁻¹.

B2: anti-ILT3 antibody 5A7 (antibody, V domains shown)
VH: EVKLVESGGGLVKPGGSLKLSCAASGFTFSSYGMSWVRQTPEKRLEWVATISGGGSYTNYPDSVKGRLTISRDNAKKNLYLEMSSLRSEDTALYYCARREWRMTLYAMDYWGQGTSVTVSS
VL: NIVLTQSPASLAVSLGQRATISCRASESVDSYGNSFMHWYQQKPGQAPKLLIYLTSNLESGVPARFSGSGSRTDFTLTIDPVEADDAATYYCQQNNEDPFTFGSGTKLEIK
notes: Mouse monoclonal antibody from hybridoma
For B2, the binding result in the test with Cyno LILRB5, in the test with human LILRB2, with LILRB3, in the test with LILRB5, with human LILRA1 and in the test with human LILRA2 was “no binding (tested: log [Ab] about -7.2 M (about 6e-8 M))” throughout. Besides, the binding result in the test with human LILRA4, with human LILRA5 and with human LILRA6 was “no binding (tested: log [Ab] about -7.2 M (about 6e-8 M))” each time. Also, the figures for the Kd in test [4] and in [5] were 28 pM and 660 pM, respectively. The koff in [4] worked out at 0.00011 s⁻¹; in test [5] it was 0.0022 s⁻¹. Further, the kon stood at 3.8e+06 M⁻¹ s⁻¹ in test [4] and 3.3e+06 M⁻¹ s⁻¹ in [5]. In addition, the concentration giving a half-maximal response (EC50 (read off the curve)) in the test with LILRB4 was ~300 pM.

B3: anti-ILT3 antibody 48A6 (antibody, V domains shown)
VH: EVQLVESGGDLMKPGGSLKLSCAASGFTFSSYGMSWVRQTPDKRLEWVATISSGGTYTFYPDSVKGRFTISRDNAKNTLYLQMSSLKSEDTAMYYCARRGWLLHYYAMDYWGQGTSVTVSS
VL: NIVLTQSPASLAVSLGQRATISCRPSESVDSFGNSFMHWFQQKPGQPPKLLIYLSSKLESGVPARFSGSGSRTDFTLTIDPVEADDAATYYCQQHNEDPFTFGSGTKLEIK
notes: as for B2
Take B3: the binding result with Cyno LILRB5 is “no binding (tested: log [Ab] about -7.2 M (about 6e-8 M))”; with human LILRB2, “no binding (tested: log [Ab] about -7.2 M (about 6e-8 M))”; with LILRB3 it was “binds”; with LILRB5 it was “no binding (tested: log [Ab] about -7.2 M (about 6e-8 M))”; in the test with human LILRA1, “no binding (tested: log [Ab] about -7.2 M (about 6e-8 M))”; in the test with human LILRA2, “no binding (tested: log [Ab] about -7.2 M (about 6e-8 M))”. For the same molecule, the binding result with human LILRA4, with human LILRA5 and with human LILRA6 was “no binding (tested: log [Ab] about -7.2 M (about 6e-8 M))” in each case. Further, the Kd is < 100 pM in test [4] and 1700 pM in test [5]. Further, the figures for the koff in test [4] and in test [5] were 1.8e-07 s⁻¹ and 0.024 s⁻¹, respectively. The kon was 7e+06 M⁻¹ s⁻¹ in [4] and 1.4e+07 M⁻¹ s⁻¹ in [5]. Moreover, in the test with LILRB4, the “EC50 (read off the curve)” value is ~200 pM.

B4: anti-ILT3 antibody 53F10 (antibody, V domains shown)
VH: EVQVVESGGGLVKPGGSLKLSCAASGFTFSDYGMHWVRQAPEKGLEWVAYISTGIITVYYADTVKGRFTMSRDNAKNTLFLQMTSLRSEDTAIYYCARADGRGAMDYWGQGTSVIVSS
VL: DIQMTQTTSSLSASLGDRVTISCRASQDISNFLNWYQQKPDGTVTLLIYYTSRLHSGVPSRFSGSGSGTDYSLTISNLEQEDFATYFCQQGNTLPWTFGGGTKLEIK
notes: as for B2
In the case of B4, the binding result with Cyno LILRB5, with human LILRB2, with LILRB3, in the test with LILRB5, in the test with human LILRA1 and with human LILRA2 was “no binding (tested: log [Ab] about -7.2 M (about 6e-8 M))” throughout. Besides, the binding result with human LILRA4, with human LILRA5 and in the test with human LILRA6 was “no binding (tested: log [Ab] about -7.2 M (about 6e-8 M))” each time. Further, the values for the Kd in test [4] and in [5] were 240 pM and 9400 pM, respectively. Moreover, the koff amounted to 8e-05 s⁻¹ in test [4] and 0.0055 s⁻¹ in test [5]. Further, the kon in test [4] was found to be 330000 M⁻¹ s⁻¹; in test [5], 590000 M⁻¹ s⁻¹. In the test with LILRB4, the “EC50 (read off the curve)” value is ~400 pM.
